Measured values as given in PMC5503752 (Biophysical chemistry, 2017).
Where two headings read alike, the source gives them in different places.

Assays:
Assay in all cases: other fluorescence titration
[1] = biological target: T1, Full-length, wild-type calmodulin (paramecium sequence) (paramecium, UniProt P07463 1-149)
[2] = biological target: T2, N-domain fragment of calmodulin (CaMN, residues 1-75) (paramecium, UniProt P07463 2-76)
[3] = biological target: T3, C-domain fragment of calmodulin (CaMC, residues 76-148) (paramecium, UniProt P07463 77-149)
[4] = biological target: T1, Full-length, wild-type calmodulin …; remark: listed apart in the source
[5] = biological target: T2, N-domain fragment of calmodulin (CaMN, …); remark: listed apart in the source
[6] = biological target: T3, C-domain fragment of calmodulin (CaMC, …); remark: listed apart in the source

Kd [1]: 85 nM | Kd [2]: > 100 µM | Kd [3]: 386 nM | Kd [4]: 3.2 nM | Kd [5]: > 100 µM | Kd [6]: 11.6 nM
Binder: KRKQEEVSAIVIQRAYRRYLLKQKVKK (domain or fragment) [NaV1.2 IQ biosensor (rat NaV1.2 residues 1901-1927 flanked by YFP and CFP)]
